Measured values published in patent publication US20250073311A1, “DOSAGE REGIME” (ZEALAND PHARMA A/S, priority 2021, published 2025).
Numbered stars: 1 amine (or outer) side, 2 acyl side, 3 side chain; on linkers, the order of the positions; unused ones are H or OH. Square brackets hold non-standard residues; d marks the D form. Side chains are listed from the residue outwards. * marks the point of attachment. C18 diacid = O=C(O)CCCCCCCCCCCCCCCCC(=O)*; γGlu = O=C(O)[C@H](CCC(=O)[*:2])N[*:1]; Palmitoyl = CCCCCCCCCCCCCCCC(=O)*; Aib = CC(C)(N)C(=O)O; βAla = NCCC(=O)O

T1: human GLP-2 receptor (hGLP2-R) (human, UniProt O95838)
T1 sequence: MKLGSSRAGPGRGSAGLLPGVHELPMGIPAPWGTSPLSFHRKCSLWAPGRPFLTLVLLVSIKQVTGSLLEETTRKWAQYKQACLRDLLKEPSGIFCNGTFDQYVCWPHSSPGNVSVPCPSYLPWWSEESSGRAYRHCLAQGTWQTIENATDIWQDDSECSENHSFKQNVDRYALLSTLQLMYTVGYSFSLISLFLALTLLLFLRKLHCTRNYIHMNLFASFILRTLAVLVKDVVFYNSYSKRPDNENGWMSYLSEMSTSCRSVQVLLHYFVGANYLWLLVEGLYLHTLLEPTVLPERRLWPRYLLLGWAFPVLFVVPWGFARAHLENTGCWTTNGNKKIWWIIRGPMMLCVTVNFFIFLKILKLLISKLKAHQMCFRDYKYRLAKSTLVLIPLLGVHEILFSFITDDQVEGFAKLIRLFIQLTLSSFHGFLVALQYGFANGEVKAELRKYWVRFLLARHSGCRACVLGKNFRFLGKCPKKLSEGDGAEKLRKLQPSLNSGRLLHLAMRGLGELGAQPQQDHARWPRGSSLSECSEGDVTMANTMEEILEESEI


Key:
[1] = biological target: human glucagon-like peptide 1 receptor (GLP-1R) (human, UniProt P43220); test: cell-based or functional assay
[2] = biological target: T1, human GLP-2 receptor (hGLP2-R); test: cell-based or functional assay

Row | Binder | EC50 GLP-1 (nM), cAMP AlphaScreen [1] [nM] | EC50 GLP-2 (nM), cAMP AlphaScreen [2] [nM]
1 | H-H[Aib]EGSFTSELATILDK([γGlu-C18 diacid])QAARDFIAWLIYHKITD-OH (SMILES CC[C@H](C)[C@H](NC(=O)[C@H](Cc1ccccc1)NC(=O)[C@H](CC(=O)O)NC(=O)[C@H](CCCNC(=N)N)NC(=O)[C@H](C)NC(=O)[C@H](C)NC(=O)[C@H](CCC(N)=O)NC(=O)[C@H](CCCCNC(=O)CC[C@H](NC(=O)CCCCCCCCCCCCCCCCC(=O)O)C(=O)O)NC(=O)[C@H](CC(=O)O)NC(=O)[C@H](CC(C)C)NC(=O)[C@@H](NC(=O)[C@@H](NC(=O)[C@H](C)NC(=O)[C@H](CC(C)C)NC(=O)[C@H](CCC(=O)O)NC(=O)[C@H](CO)NC(=O)[C@@H](NC(=O)[C@H](Cc1ccccc1)NC(=O)[C@H](CO)NC(=O)CNC(=O)[C@H](CCC(=O)O)NC(=O)C(C)(C)NC(=O)[C@@H](N)Cc1c[nH]cn1)[C@@H](C)O)[C@@H](C)O)[C@@H](C)CC)C(=O)N[C@@H](C)C(=O)N[C@@H](Cc1c[nH]c2ccccc12)C(=O)N[C@@H](CC(C)C)C(=O)N[C@H](C(=O)N[C@@H](Cc1ccc(O)cc1)C(=O)N[C@@H](Cc1c[nH]cn1)C(=O)N[C@@H](CCCCN)C(=O)N[C@H](C(=O)N[C@H](C(=O)N[C@@H](CC(=O)O)C(=O)O)[C@@H](C)O)[C@@H](C)CC)[C@@H](C)CC) [Compound 27] | 0.45 | 1.1
2 | H-H[Aib]EGSFTSELATILDK([γGlu-C18 diacid])QAARDFIAWLILHKITD-OH (SMILES CC[C@H](C)[C@H](NC(=O)[C@H](Cc1ccccc1)NC(=O)[C@H](CC(=O)O)NC(=O)[C@H](CCCNC(=N)N)NC(=O)[C@H](C)NC(=O)[C@H](C)NC(=O)[C@H](CCC(N)=O)NC(=O)[C@H](CCCCNC(=O)CC[C@H](NC(=O)CCCCCCCCCCCCCCCCC(=O)O)C(=O)O)NC(=O)[C@H](CC(=O)O)NC(=O)[C@H](CC(C)C)NC(=O)[C@@H](NC(=O)[C@@H](NC(=O)[C@H](C)NC(=O)[C@H](CC(C)C)NC(=O)[C@H](CCC(=O)O)NC(=O)[C@H](CO)NC(=O)[C@@H](NC(=O)[C@H](Cc1ccccc1)NC(=O)[C@H](CO)NC(=O)CNC(=O)[C@H](CCC(=O)O)NC(=O)C(C)(C)NC(=O)[C@@H](N)Cc1c[nH]cn1)[C@@H](C)O)[C@@H](C)O)[C@@H](C)CC)C(=O)N[C@@H](C)C(=O)N[C@@H](Cc1c[nH]c2ccccc12)C(=O)N[C@@H](CC(C)C)C(=O)N[C@H](C(=O)N[C@@H](CC(C)C)C(=O)N[C@@H](Cc1c[nH]cn1)C(=O)N[C@@H](CCCCN)C(=O)N[C@H](C(=O)N[C@H](C(=O)N[C@@H](CC(=O)O)C(=O)O)[C@@H](C)O)[C@@H](C)CC)[C@@H](C)CC) [Compound 28] | 0.36 | 0.51
3 | H-H[Aib]EGSFTSELATILDK([γGlu-C18 diacid])QAARDFIAWLIHHKITD-OH (SMILES CC[C@H](C)[C@H](NC(=O)[C@H](Cc1ccccc1)NC(=O)[C@H](CC(=O)O)NC(=O)[C@H](CCCNC(=N)N)NC(=O)[C@H](C)NC(=O)[C@H](C)NC(=O)[C@H](CCC(N)=O)NC(=O)[C@H](CCCCNC(=O)CC[C@H](NC(=O)CCCCCCCCCCCCCCCCC(=O)O)C(=O)O)NC(=O)[C@H](CC(=O)O)NC(=O)[C@H](CC(C)C)NC(=O)[C@@H](NC(=O)[C@@H](NC(=O)[C@H](C)NC(=O)[C@H](CC(C)C)NC(=O)[C@H](CCC(=O)O)NC(=O)[C@H](CO)NC(=O)[C@@H](NC(=O)[C@H](Cc1ccccc1)NC(=O)[C@H](CO)NC(=O)CNC(=O)[C@H](CCC(=O)O)NC(=O)C(C)(C)NC(=O)[C@@H](N)Cc1c[nH]cn1)[C@@H](C)O)[C@@H](C)O)[C@@H](C)CC)C(=O)N[C@@H](C)C(=O)N[C@@H](Cc1c[nH]c2ccccc12)C(=O)N[C@@H](CC(C)C)C(=O)N[C@H](C(=O)N[C@@H](Cc1c[nH]cn1)C(=O)N[C@@H](Cc1c[nH]cn1)C(=O)N[C@@H](CCCCN)C(=O)N[C@H](C(=O)N[C@H](C(=O)N[C@@H](CC(=O)O)C(=O)O)[C@@H](C)O)[C@@H](C)CC)[C@@H](C)CC) [Compound 26] | 0.29 | 0.59

Second part, the binder after the results:

Row | EC50 GLP-1 (nM), cAMP AlphaScreen [1] [nM] | EC50 GLP-2 (nM), cAMP AlphaScreen [2] [nM] | Binder
4 | 0.27 | 0.24 | H-H[Aib]EGSFTSELATILDK([γGlu-C18 diacid])QAARDFIAWLISHKITD-OH (SMILES CC[C@H](C)[C@H](NC(=O)[C@H](Cc1ccccc1)NC(=O)[C@H](CC(=O)O)NC(=O)[C@H](CCCNC(=N)N)NC(=O)[C@H](C)NC(=O)[C@H](C)NC(=O)[C@H](CCC(N)=O)NC(=O)[C@H](CCCCNC(=O)CC[C@H](NC(=O)CCCCCCCCCCCCCCCCC(=O)O)C(=O)O)NC(=O)[C@H](CC(=O)O)NC(=O)[C@H](CC(C)C)NC(=O)[C@@H](NC(=O)[C@@H](NC(=O)[C@H](C)NC(=O)[C@H](CC(C)C)NC(=O)[C@H](CCC(=O)O)NC(=O)[C@H](CO)NC(=O)[C@@H](NC(=O)[C@H](Cc1ccccc1)NC(=O)[C@H](CO)NC(=O)CNC(=O)[C@H](CCC(=O)O)NC(=O)C(C)(C)NC(=O)[C@@H](N)Cc1c[nH]cn1)[C@@H](C)O)[C@@H](C)O)[C@@H](C)CC)C(=O)N[C@@H](C)C(=O)N[C@@H](Cc1c[nH]c2ccccc12)C(=O)N[C@@H](CC(C)C)C(=O)N[C@H](C(=O)N[C@@H](CO)C(=O)N[C@@H](Cc1c[nH]cn1)C(=O)N[C@@H](CCCCN)C(=O)N[C@H](C(=O)N[C@H](C(=O)N[C@@H](CC(=O)O)C(=O)O)[C@@H](C)O)[C@@H](C)CC)[C@@H](C)CC) [Compound 31]
5 | 0.38 | 0.46 | H-H[Aib]EGSFTSELATILDK([βAla-Palmitoyl])QAARDFIAWLQQHKITD-OH (SMILES CCCCCCCCCCCCCCCC(=O)NCCC(=O)NCCCC[C@H](NC(=O)[C@H](CC(=O)O)NC(=O)[C@H](CC(C)C)NC(=O)[C@@H](NC(=O)[C@@H](NC(=O)[C@H](C)NC(=O)[C@H](CC(C)C)NC(=O)[C@H](CCC(=O)O)NC(=O)[C@H](CO)NC(=O)[C@@H](NC(=O)[C@H](Cc1ccccc1)NC(=O)[C@H](CO)NC(=O)CNC(=O)[C@H](CCC(=O)O)NC(=O)C(C)(C)NC(=O)[C@@H](N)Cc1c[nH]cn1)[C@@H](C)O)[C@@H](C)O)[C@@H](C)CC)C(=O)N[C@@H](CCC(N)=O)C(=O)N[C@@H](C)C(=O)N[C@@H](C)C(=O)N[C@@H](CCCNC(=N)N)C(=O)N[C@@H](CC(=O)O)C(=O)N[C@@H](Cc1ccccc1)C(=O)N[C@H](C(=O)N[C@@H](C)C(=O)N[C@@H](Cc1c[nH]c2ccccc12)C(=O)N[C@@H](CC(C)C)C(=O)N[C@@H](CCC(N)=O)C(=O)N[C@@H](CCC(N)=O)C(=O)N[C@@H](Cc1c[nH]cn1)C(=O)N[C@@H](CCCCN)C(=O)N[C@H](C(=O)N[C@H](C(=O)N[C@@H](CC(=O)O)C(=O)O)[C@@H](C)O)[C@@H](C)CC)[C@@H](C)CC) [Compound 32]
6 | 0.31 | 0.38 | H-H[Aib]EGSFTSELATILDK([γGlu-C18 diacid])QAARDFIAWLIRHKITD-OH (SMILES CC[C@H](C)[C@H](NC(=O)[C@H](Cc1ccccc1)NC(=O)[C@H](CC(=O)O)NC(=O)[C@H](CCCNC(=N)N)NC(=O)[C@H](C)NC(=O)[C@H](C)NC(=O)[C@H](CCC(N)=O)NC(=O)[C@H](CCCCNC(=O)CC[C@H](NC(=O)CCCCCCCCCCCCCCCCC(=O)O)C(=O)O)NC(=O)[C@H](CC(=O)O)NC(=O)[C@H](CC(C)C)NC(=O)[C@@H](NC(=O)[C@@H](NC(=O)[C@H](C)NC(=O)[C@H](CC(C)C)NC(=O)[C@H](CCC(=O)O)NC(=O)[C@H](CO)NC(=O)[C@@H](NC(=O)[C@H](Cc1ccccc1)NC(=O)[C@H](CO)NC(=O)CNC(=O)[C@H](CCC(=O)O)NC(=O)C(C)(C)NC(=O)[C@@H](N)Cc1c[nH]cn1)[C@@H](C)O)[C@@H](C)O)[C@@H](C)CC)C(=O)N[C@@H](C)C(=O)N[C@@H](Cc1c[nH]c2ccccc12)C(=O)N[C@@H](CC(C)C)C(=O)N[C@H](C(=O)N[C@@H](CCCNC(=N)N)C(=O)N[C@@H](Cc1c[nH]cn1)C(=O)N[C@@H](CCCCN)C(=O)N[C@H](C(=O)N[C@H](C(=O)N[C@@H](CC(=O)O)C(=O)O)[C@@H](C)O)[C@@H](C)CC)[C@@H](C)CC) [Compound 30]
7 | 0.31 | 0.29 | H-H[Aib]EGSFTSELATILDK([γGlu-C18 diacid])QAARDFIAWLIKHKITD-OH (SMILES CC[C@H](C)[C@H](NC(=O)[C@H](Cc1ccccc1)NC(=O)[C@H](CC(=O)O)NC(=O)[C@H](CCCNC(=N)N)NC(=O)[C@H](C)NC(=O)[C@H](C)NC(=O)[C@H](CCC(N)=O)NC(=O)[C@H](CCCCNC(=O)CC[C@H](NC(=O)CCCCCCCCCCCCCCCCC(=O)O)C(=O)O)NC(=O)[C@H](CC(=O)O)NC(=O)[C@H](CC(C)C)NC(=O)[C@@H](NC(=O)[C@@H](NC(=O)[C@H](C)NC(=O)[C@H](CC(C)C)NC(=O)[C@H](CCC(=O)O)NC(=O)[C@H](CO)NC(=O)[C@@H](NC(=O)[C@H](Cc1ccccc1)NC(=O)[C@H](CO)NC(=O)CNC(=O)[C@H](CCC(=O)O)NC(=O)C(C)(C)NC(=O)[C@@H](N)Cc1c[nH]cn1)[C@@H](C)O)[C@@H](C)O)[C@@H](C)CC)C(=O)N[C@@H](C)C(=O)N[C@@H](Cc1c[nH]c2ccccc12)C(=O)N[C@@H](CC(C)C)C(=O)N[C@H](C(=O)N[C@@H](CCCCN)C(=O)N[C@@H](Cc1c[nH]cn1)C(=O)N[C@@H](CCCCN)C(=O)N[C@H](C(=O)N[C@H](C(=O)N[C@@H](CC(=O)O)C(=O)O)[C@@H](C)O)[C@@H](C)CC)[C@@H](C)CC) [Compound 29]
